Data on 1 molecule can be found in patent publication US9587002B2, “Sequence of nucleotides and peptides GSE 24.2 of dyskerin, which can induce telomerase activity, method for obtaining same, therapeutic compositions and applications thereof” (CONSEJO SUPERIOR DE INVESTIGACIONES CIENTIFICAS, priority 2005, dated 2017).

Entries after “also recorded” stand apart in the source; their conditions may differ.

Holding throughout (type): cell-based, human
Data set [1] relates to 293T cells. In words: Cell viability of 293T cell lines treated with Inhibitor of Telomerase I (crystal violet). The settings on record: 24.2 vs pLNCX 293T cells, inhibitor 0-20 μM, 72 hours. The method, then:
FIG. 6.—Cell viability and telomerase activity of the 293T cell lines: pLNCX and 24.2 treated with the Inhibitor of telomerase I. A) Cell viability. After seeding the 293T cells: pLNCX and 24.2 in 24-well plates, they were incubated with concentrations between 0-20 μM of the Inhibitor of Telomerase I. The cell viability was measured by means of the crystal violet technique after 72 hours of exposure to the drug. The data represent the mean of two experiments performed in quadruplicate. B) Telomerase activity at different doses of the Inhibitor of Telomerase I. Telomerase activity of the 293T cells: 24.2 and pLNCX in the presence of different concentrations of the inhibitor of telomerase I (5-7 μM) for 3 days. The cells were seeded in 60-mm plates and subsequently treated at the specified concentrations and times.
The effect of GSE 24.2 in response to the inhibitor of telomerase I was studied. To this end, a viability curve was performed wherein the pLNCX and 24.2 cell lines were treated with increasing concentrations of the inhibitor of telomerase I (0-20 μM) for 72 hours. […]
(§1) Growth curves. […] The number of cells was determined by estimating the absorbance at 595 nm. […]

In another data set the test system is p38. As to the kind of experiment: Activation of p38 by cisplatin in 293T cell lines (Western blot). The settings on record: 293T cells stably expressing GSE 24.2 vs pLNCX; cisplatin 6 hours. The method, then: (§2) FIG. 2.—Cell viability and activation of the JNK and p38 death pathways in 293T cell lines: pLNCX and 24.2, treated with cisplatin. A) Cell viability. After seeding the 293T cells: expressing the empty vector (pLNCX) and GSE 24.2 (24.2) in 24-well plates, they were incubated with concentrations between 0-100 μg/ml of cisplatin. The cell viability was measured by means of the crystal violet technique after 72 hours of exposure to the drug. The data represent the mean of two experiments performed in quadruplicate. B) Activation kinetics. Subsequently, the activation of JNK and p38 was studied using antibodies that specifically recognise the active forms. As a load control, the levels of JNK-1 were detected.
The pLNCX24-2 plasmid containing GSE of the same name was transfected in a stable manner in the 293T cells and, as a control, the pLNCX empty vector was transfected. After verifying, by means of PCR, that the 24.2 cell line contained this insert (data not shown), the response to cisplatin was studied, creating a viability curve with this drug. […] JNK and p38 are MAPKs that are activated in response to genotoxic agents (Sanchez-Perez et al., 1998).
Western Blot and antibodies. 20 μg of protein were separated in SDS-polyacrylamide gels; subsequently, they were transferred to Immobilon-P membranes (Millipore) by humid transfer. […]

Data set [2] concerns 293T cells. As to the kind of experiment: Cell viability of 293T cell lines treated with cisplatin (crystal violet). As to conditions: 293T cells stably expressing the construct vs empty vector pLNCX; cisplatin 0-100 μg/ml, 72 hours. The method, then:
as §2
FIG. 4.—Viability of the 293T cell lines: pLNCX, 24.2, DSK5′ and DSK treated with cisplatin. The cell lines described above (pLNCX and 24.2), the DSK 5′ cell line, which expresses a fragment of dyskerin described in the preceding figure, and a fourth one that overexpresses the complete cDNA of dyskerin (DSK) have been used. The viability was analyzed as shown in FIG. 1 A. The data represent the mean of two experiments performed in quadruplicate. […]
as §1

B1: GSE 24.2: 165-pb cDNA fragment (nucleotides 268 to 433) of human dyskerin, SEQ ID NO1, encoding peptide SEQ ID NO2, expressed from pLNCX plasmid (nucleic acid, listed as Homo sapiens)
DNA: GGTTTCATTAATCTTGACAAGCCCTCTAACCCCTCTTCCCATGAGGTGGTAGCCTGGATTCGACGGATACTTCGGGTGGAGAAGACAGGGCACAGTGGTACTCTGGATCCCAAGGTGACTGGTTGTTTAATCGTGTGCATAGAACGAGCCACTCGCTTGGTGAAG
modifications: expressed from pLNCX plasmid; CDS (1)..(165) Sequence GSE 24.2
For the molecule B1, the “cell viability in response to Inhibitor of Telomerase I” value with 293T cells [1] was “more resistant to the inhibitor of telomerase I”; in the data set with 293T cells [1] (listed as 24.2), “increases viability”. Besides, the “dose of cisplatin required to activate p38” value in the data set with p38 is “a greater dose of cisplatin is required to activate both kinases”. Moreover, the “cell viability in response to cisplatin” value with 293T cells [2] is listed as “greater viability in response to cisplatin; also recorded: survival capacity to cisplatin”.
